The text below walks through data of the supplement of paper PMC10567573.

± gives the standard deviation.

The data set in a line: protein stability index of a GFP-peptide fusion (GPS, HEK-293T) (PSI 1-6); higher = more stable. Conditions: c terminus: a fixed tail appended.
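Note: 24-mer peptide tiles fused after GFP, lentivirally expressed, FACS-sorted into six equal bins by GFP/DsRed ratio, decoded by Illumina sequencing, PSI is the read-weighted mean bin number.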

For NPVYYGPSDFFIGAVIEVFGHRFI [EFHC1], the protein stability index runs as follows: (treatment: DMSO) 3.04 ± 0.7; (treatment: MLN4924 1 uM, 8 h) 2.44 ± 0.79.
NQGFLKVERYHNLCQKQVKAQLPR [FBXO28]: the protein stability index stood at 2.76 ± 0.47 (treatment: DMSO) and 2.64 ± 0.45 (treatment: MLN4924 1 uM, 8 h).
Turning to NQGTQITVEDLFYNIATRRKALKN [MLH1], the protein stability index worked out at 3.29 ± 0.32 (treatment: DMSO) and 3.37 ± 0.48 (treatment: MLN4924 1 uM, 8 h).
Consider NQLSQAELDELASKAPVLTYGQPK [EFHC1], for which the protein stability index stood at 4.78 ± 0.11 (treatment: DMSO) and 4.79 ± 0.072 (treatment: MLN4924 1 uM, 8 h).
With NRDEHSSRGYRNHRSSRETRDYAP [RBMY1A1], the protein stability index runs as follows: (treatment: DMSO) 4.74 ± 0.072; (treatment: MLN4924 1 uM, 8 h) 4.63 ± 0.095.
Taken in the same sequence, the figures for NRELWKEFSSVGTEMIITKAGRRM [TBX6] were 2.88 ± 0.27 and 3.21 ± 0.4.
As to NSEADQLGKIFDLIGLPPEDDWPR [CDK4], the protein stability index is 3.7 ± 0.35 (treatment: DMSO) and 3.92 ± 0.23 (treatment: MLN4924 1 uM, 8 h).
With NSMAPHPARDYVVLRTWRTNLPKG [DLC1], the protein stability index runs as follows: (treatment: DMSO) 2.48 ± 0.59; (treatment: MLN4924 1 uM, 8 h) 2.64 ± 0.21.
NSSPRVMQRKQSLGKPDQKDLNEN [DLC1]: the protein stability index is, setting by setting: (treatment: DMSO) 5.09 ± 0.18; (treatment: MLN4924 1 uM, 8 h) 4.88 ± 0.28.
As for NVLHGYPKDIYSSFGFPRTVKHID [MMP1], the protein stability index runs as follows: (treatment: DMSO) 2.63 ± 0.098; (treatment: MLN4924 1 uM, 8 h) 2.74 ± 0.24.
With NVVTCAAGILSNLTCNNYKNKMMV [CTNNB1], the protein stability index (treatment: DMSO) was 2.69 ± 0.41 and the protein stability index (treatment: MLN4924 1 uM, 8 h) was determined as 2.46 ± 0.24.
Taken in the same sequence, the figures for NVYPEMRVYNNTLTYGEVRNSKAS [GALNT9] were 3.94 ± 0.22 and 4.14 ± 0.3.
The sequence PAATWNLEEKRLTWRLPDVSEAGG [FCHO1] returned a protein stability index (treatment: DMSO) of 4.49 ± 0.24 and a protein stability index (treatment: MLN4924 1 uM, 8 h) of 4.58 ± 0.25.
For PAFRFLTKMWHPNIYETGDVCISI [CDC34], in that order: 3.2 ± 0.42 and 3.04 ± 0.59.
For the sequence PAHRFVLAAGSAVFDAMFNGGMAT [BTBD1], the protein stability index came out at 2.49 ± 0.85 (treatment: DMSO) and 2.24 ± 0.55 (treatment: MLN4924 1 uM, 8 h).
Taken in the same sequence, the figures for PANCPACREPSPKMDFKTNILLKN [TRIM43] were 3.38 ± 0.25 and 3.52 ± 0.21.
Consider PAPALAPDQLPQNNTLVALPIVAI [FBXO28], for which the protein stability index was 2.91 ± 0.23 (treatment: DMSO) and 2.68 ± 0.33 (treatment: MLN4924 1 uM, 8 h).
Taken in the same sequence, the figures for PAQLSCLPYLEHVGHNHTYNMAPS [NFE2L1] were 2.91 ± 0.25 and 2.96 ± 0.28.
Taken in the same sequence, the figures for PAQPGADSSFPPALAEGYRYPELD [TBX6] were 5.14 ± 0.18 and 5.01 ± 0.36.
With PAVATLCDLFDREIVVTISWAKSI [ESRRA], the protein stability index came out at 2.65 ± 0.56 (treatment: DMSO) and 3.36 ± 0.85 (treatment: MLN4924 1 uM, 8 h).
For PCIPPGFRNLVADRVLNYTSWSQH [SPAG8], in that order: 2.14 ± 0.15 and 2.37 ± 0.27.
As to PCPEDASTPRPPEASSSPPEGSQD [TLE6], the protein stability index (treatment: DMSO) stood at 5.52 ± 0.16 and the protein stability index (treatment: MLN4924 1 uM, 8 h) came out at 5.53 ± 0.17.
Taken in the same sequence, the figures for PDALSDVGEVPYWVLEPVLEGWRP [ELOA2] were 3.07 ± 0.26 and 3.13 ± 0.54.
On to PDFCHKFLPGYVGGIQEGAVTPAG [DHCR7], for which the protein stability index (treatment: DMSO) worked out at 3.57 ± 0.32 and the protein stability index (treatment: MLN4924 1 uM, 8 h) was 3.6 ± 0.11.
Taken in the same sequence, the figures for PEARYLFLLDVIPVDGARYRWQGR [TBX6] were 2.08 ± 0.27 and 2.09 ± 0.31.
For PEEFSLLKLQTKDGHRPEWTFYPR [SPATS1], in that order: 2.76 ± 0.32 and 2.87 ± 0.49.
As for PEGSQDRNTSWGVVQEPPGRASRF [TLE6], the protein stability index is, setting by setting: (treatment: DMSO) 4.83 ± 0.23; (treatment: MLN4924 1 uM, 8 h) 4.57 ± 0.14.
For PEPEDEPGGPGAMTESLEASEFLE [RSPH3], in that order: 5.7 ± 0.12 and 5.48 ± 0.2.
For PESPGGTTTLEGSPSVPCIFCEEH [ZNF277], in that order: 4.82 ± 0.3 and 4.82 ± 0.16.
For PGAFGTILTFLRAGKLRLLREMCA [KCNG1], in that order: 2.84 ± 0.33 and 2.8 ± 0.062.
PGGGGSPGACPALGTKSCSSSCAV [RTN3]: the protein stability index stood at 3.73 ± 0.42 (treatment: DMSO) and 4.07 ± 0.22 (treatment: MLN4924 1 uM, 8 h).
For PGQEKGSALEGRADTTTGSAAGPP [EHMT1], in that order: 5.39 ± 0.22 and 5.48 ± 0.17.
Turning to PGRSALIVAVLCYINLLNYMDRFT [SPNS1], the protein stability index reads like this: (treatment: DMSO) 2.81 ± 0.88; (treatment: MLN4924 1 uM, 8 h) 3.44 ± 0.31.
For PHEDHVFLVANFSQIETLTSVFQK [MATN2], in that order: 2.25 ± 0.24 and 2.35 ± 0.16.
Taken in the same sequence, the figures for PHGQYGGHHQGMPGYLPGAMPPYG [ZNF207] were 2.93 ± 0.33 and 3.09 ± 0.41.
Taken in the same sequence, the figures for PKARKQGVSPADMYRWKLSSHEPC [ADAMTSL2] were 2.94 ± 0.27 and 3.25 ± 0.14.
As for PKEEQQQALEQFAAAAAHSTPVRR [EPB41L3], the protein stability index is 5.37 ± 0.087 (treatment: DMSO) and 5.22 ± 0.33 (treatment: MLN4924 1 uM, 8 h).
Taken in the same sequence, the figures for PKKKHLDYLIQATNETNVNIPQMA [SNAP91] were 3.67 ± 0.13 and 3.43 ± 0.33.
Taken in the same sequence, the figures for PLMGETQERERVLTHFSRRYCQCN [PSD2] were 3.13 ± 0.38 and 3.62 ± 0.25.
For PLSLVKRTDLKDLIIFDKQSSQRM [CEP70], in that order: 2.97 ± 0.51 and 3.18 ± 0.44.
As for PNIPKAKSLDGVTNDRTASQGQWG [DHCR7], the protein stability index turned out to be 4.65 ± 0.29 (treatment: DMSO) and 4.84 ± 0.29 (treatment: MLN4924 1 uM, 8 h).
As for PNIVVAIAGNKCDLIDVREVMERD [RAB22A], the protein stability index runs as follows: (treatment: DMSO) 3.68 ± 0.14; (treatment: MLN4924 1 uM, 8 h) 3.68 ± 0.25.
Turning to PNKGLLSDSMTDVPVDTGVAARTP [TPD52L2], the protein stability index runs as follows: (treatment: DMSO) 4.9 ± 0.17; (treatment: MLN4924 1 uM, 8 h) 4.93 ± 0.16.
For PPLREIILGPSSAYTQTQFHNLRN [NFE2L1], in that order: 2.47 ± 0.15 and 2.65 ± 0.4.
For PQKTYSVKVLAFTSIGDGPLSSDI [PTPRD], in that order: 2.17 ± 0.29 and 1.89 ± 0.3.
For PQTRSGPECGLAKKPPEESTCFER [ADAMTSL2], the protein stability index runs as follows: (treatment: DMSO) 5.05 ± 0.22; (treatment: MLN4924 1 uM, 8 h) 5.08 ± 0.33.
Turning to PQTVGVGRARFTTYEVRMRTNLPI [SNX12], the protein stability index came out at 2.61 ± 0.22 (treatment: DMSO) and 2.6 ± 0.34 (treatment: MLN4924 1 uM, 8 h).
For PRNSDMKNQGEENGFPDSTGDPLP [EDARADD], in that order: 5.53 ± 0.26 and 5.36 ± 0.13.
For PRQVSYTPQHHEKQYAMQRPNDDS [IQUB], in that order: 4.78 ± 0.22 and 4.77 ± 0.12.
For PRTNQWSPVVAMTSRRSGVGLAVV [KLHL20], the protein stability index is 2.47 ± 0.51 (treatment: DMSO) and 2.47 ± 0.33 (treatment: MLN4924 1 uM, 8 h).
As for PSEPSAPLPAGVPPLEDFEVLDGV [FKBP8], the protein stability index is, setting by setting: (treatment: DMSO) 5.49 ± 0.18; (treatment: MLN4924 1 uM, 8 h) 5.53 ± 0.11.
In the case of PSPMPTHRSYLGPGSTSPLETSGN [SLC6A17], the protein stability index came to 4.13 ± 0.29 (treatment: DMSO) and 4.47 ± 0.26 (treatment: MLN4924 1 uM, 8 h).
As to PSRQYATLDVYNPFETREPPPAYE [SCAMP3], the protein stability index reads like this: (treatment: DMSO) 3.95 ± 0.27; (treatment: MLN4924 1 uM, 8 h) 4.14 ± 0.21.
